From paper PMC13360575 come the findings set out here.

Sequences and labels used below:
B1: clone 2.1 Fab TA_28 (Fab, V domains shown)
VH: EVQLQESGPSLVKPSQTLSLTCSVTGDSITSGYWNWIRKFPGNKLEYMGYISYSGGTYYNPSLKSRISITRDTSKNQYYLQLNSVTTEDTATYYCARDFDVWGAGTTVTVSS
VL: DIVMTQSQKFMSTSVGDRVSVTCKASQNVGTNVAWYQQKPGQSPKALIYSASYRYSGVPDRFTGSGSGTDFTLTISNVQSEDLAEYFCQQYNSYPLTFGSGTKLEIK
B2: clone 2.1 Fab TA_1 (Fab, V domains shown)
VH: EVQLQESGPSLVKPSQTLSLTCSVTGDSITSGYWNWIRKFPGNRLEYMGYISFSGSTYYNPSLKSRISITRDTSKNQYYLQLNSVTTEDTATYYCARDFDVWGAGTTVTVSS
VL: DIVMTQSQKFMSTSVGDRVSVTCKASQNVGTNVGWYQQKPGQSPKALIYSASYRYSGVPDRFTGSGSGTDFTLTISNVQSEDLAEYFCQQYNSYPLTFGSGTKLEIK
B3: clone 2.1 Fab TA_4 (Fab, V domains shown)
VH: EVQLQESGPSLVKPSQTLSLTCSVTGDSITSGYWNWIRKFPGNKLEYMGYISYSGSTYYNPSLKSRISITRDTSKNQYYLQLNSVTTEDTATYYCARDFDVWGAGTTVTVSS
VL: DIVMTQSQKFMSTSVGDRVSVTCKASQNVGTNVVWYQQKPGQSPKALIYSASYRYSGVPDRFTGSGSGTDFTLTISNVQSEDLAEYFCQQYDSYPLTFGSGTKLEIK
B4: clone 2.1 Fab CB_05 (clonal burst) (Fab, V domains shown)
VH: EVQLQESGPSLVKPSQTLSLTCSVTGDSITSGYWNWIRKFPGNKLEYMGYISYSGSTYYNPSLKSRISITRDTSKNQYYLQLNSVTTEDTATYYCGRDFDVWGAGTTVTVSS
VL: DIVMTQSQKFMSTSVGDRVSVTCKASQNVGTNVAWYQQKPGQSPKALIYSASYRYSGVPDRFTGSGSGTDFTLTISNVQSEDLAEYFCQQYNSYPLTFGSGTKLEIK
B5: clone 2.1 Fab CB_07 (clonal burst) (Fab, V domains shown)
VH: EVQLQESGPSLVKPSQTLSLTCSVTGDSITSGYWNWIRKFPGNKLEYMGYISYSGSTYYNPSLKSRISITRDTSKNQYYLQLNSVTTEDTATYYCGRDFDVWGAGTTVTVSS
VL: DIVMTQSQKFMSTSVGDRVSVTCKASQNVGTNVAWYQQKPGQSPKALIYSASYRYSGVPDRFTGSGSGTDFTLTISNVQSEDLAEYFCQQYKSYPLTFGSGTKLEIK
B6: clone 2.1 Fab TA_3 (Fab, V domains shown)
VH: EVQLQESGPSLVKPSQTLSLTCSVTGDSITSGYWNWIRKFPGNKLEYMGYISYSGSTYYNPSLKSRISITRDTSKNQYYLQLNSVTTEDTATYYCARDFDVWGAGTTVTVSS
VL: DIVMTQSQKFMSTSVGDRVSVTCKASQNVGTNVVWYQQKPGQSPKALIYSASYRYSGVPDRFTGSGSGTDFTLTISNVQSEDLAEYFCQQYNSYPLTFGSGTKLEIK
B7: clone 2.1 Fab CB_10 (clonal burst) (Fab, V domains shown)
VH: EVQLQESGPSLVKPSQTLSLTCSVTGDSITSGYWNWIRKFPGNKLEYMGYISYSGSTYYNPSLKSRISITRDTSKNQYYLQLNSVTTEDTATYYCGRDFDVWGAGTTVTVSS
VL: DIVMTQSQKFMSTSVGDRVSVTCKASQNVGTNVGWYQQKPGQSPKALIYSASYRYSGVPDRFTGSGSGTDFTLTISNVQSEDLAEYFCQQYNRYPLTFGSGTKLEIK
B8: clone 2.1 Fab TA_2 (Fab, V domains shown)
VH: EVQLQESGPSLVKPSQTLSLTCSVTGDSITSGYWNWIRKFPGNKLEYMGYISYSGSTYYNPSLKSRISITRDTSKNQYYLQLNSVTTEDTATYYCARDFDVWGAGTTVTVSS
VL: DIVMTQSQKFMSTSVGDRVSVTCKASQNVGTNVGWYQQKPGQSPKALIYSASYRYSGVPDRFTGSGSGTDFTLTISNVQSEDLAEYFCQQYNSYPLTFGSGTKLEIK
B9: clone 2.1 Fab L_11 (affinity ladder) (Fab, V domains shown)
VH: EVQLQESGPSLVKPSQTLSLTCSVTGDSITSGYWNWIRKFPGNKLEYMGYISYSGSTYYNPSLKSRISITRDTSTNQYYLQLNSVTTEDTATYFCARDFDVWGAGTTVTVSS
VL: DIVMTQSQKFMSTSVGDRVSVTCKASQNVGTNVGWYQQKPGQSPKALIYSASYRYSGVPDRFTGSGSGTDFTLTISNVQSEDLAEYFCQQYNSYPLTFGSGTKLEIK
B10: clone 2.1 Fab L_10 (affinity ladder) (Fab, V domains shown)
VH: EVQLQESGPGLVKPSQTLSLTCSVTGDSITSGYWNWIRKFPGNKLEYMGYISYSGSTYYNPSLKSRVSITRDTSKNQHYLQLNSVTTEDTATYYCGRDFDVWGAGTTVTVSS
VL: DIVMTQSQKFMSTSVGDRVSVTCKASQNVGTNVAWYQQKPGQSPKALIYSASYRYSGVPDRFTGSGSGTDFTLTISNVQSEDLAEYFCQQYKSYPLTFGSGTKLEIK
B11: Fab fragment of a high-affinity variant of clone 2.1 (2.1^hi) (Fab, V domains shown)
VH: EVQLQESGPSLVKPSQTLSLTCSVTGASITSGYWNWIRKFPGNRLEYMGYISYSGGTYYNPSLKSRISITRDTSKNQYYLQLNSVTTEDTATYYCARDFDVWGAGTTVTVSS
VL: DIVMTQSQKFMSTSVGDRVSVTCKASQNVGTNVGWFQQKPGQSPKSLIYSASYRYSGVPDRFTGSGSGTDFTLTISNVQSEDLAEYFCHQYYSYPLTFGSGTKLEIK

The target in one assay is chicken IgY (chicken). As to the kind of experiment: BLI; Octet, SAX (streptavidin) biosensors; recombinant Fabs against IgY; KD from a kinetic 1:1 model, global fit over multiple concentrations (partial fits averaged for 3 low-affinity Fabs). (In general: BLI is a label-free optical method that tracks binding on a fibre tip over time.)
Regarding B1, the Kd is 22 nM, the koff stood at 0.00309 s⁻¹ and the kon turned out to be 140000 M⁻¹ s⁻¹.
As to B2, the Kd came out at 2.84 nM, the koff worked out at 0.000359 s⁻¹ and the kon worked out at 126000 M⁻¹ s⁻¹.
For B3, in that order: 71.1 nM, 0.00792 s⁻¹ and 111000 M⁻¹ s⁻¹.
In the same order, the values of B4 are 6.76 nM, 0.00149 s⁻¹ and 221000 M⁻¹ s⁻¹.
With B5, the Kd turned out to be 1.34 nM, the koff was found to be 0.000349 s⁻¹ and the kon was found to be 261000 M⁻¹ s⁻¹.
For B6, in that order: 54 nM, 0.00767 s⁻¹ and 142000 M⁻¹ s⁻¹.
As to B7, the Kd was 0.127 nM, the koff was determined as 3.73e-05 s⁻¹ and the kon amounted to 294000 M⁻¹ s⁻¹.
For the molecule B8, the Kd is 4.21 nM, the off-rate (koff) was found to be 0.000383 s⁻¹ and the kon turned out to be 90900 M⁻¹ s⁻¹.
In the same order, the values of B9 are 1.83 nM, 0.00011 s⁻¹ and 59800 M⁻¹ s⁻¹.
In the same order, the values of B10 are 1.21 nM, 0.000462 s⁻¹ and 381000 M⁻¹ s⁻¹.

Another assay concerns the target chicken IgY (chicken). As to the kind of experiment: BLI; Octet, SAX (streptavidin) biosensors; Fabs at multiple concentrations; KD from a kinetic 1:1 model, global fits (R^2 > 0.98); as described previously (ref. 7).
B11 gave an equilibrium dissociation constant (Kd) of 0.062 nM.

In general, Kd refers to the constant that tells how readily two partners part at equilibrium. As usually defined, the koff is the rate constant with which the complex falls apart. For orientation: kon means the rate constant with which the complex forms.
